Target: HSA/hEPO (83.5 Kd) (human)
Assay: double-antibody sandwich ELISA (R&D Systems EPO kit), against the recombinant human EPO standard

“anti-EPO antibodies of the EPO ELISA kit from R&D Systems (tool reagent)” was tested, and the activity compared with the standard (of the activity of the EPO standard) was 0.1.

From patent publication US20040063635A1
